One experiment concerns the target HLA-A*24:02. The experiment is described as follows: IEDB peptide-MHC binding, purified MHC/competitive/radioactivity; filed as Kd, often an IC50 or EC50 that approximates it; ≥ and ≤ were set here for values at or beyond the usual limits of such assays.
Another experiment concerns the target HLA-A*26:01. The experiment is described as above.
For another experiment, the target named is HLA-A*01:01. The experiment is described as above.
The target of experiment [1] is HLA-B*15:01. The description is as above.
The next experiment concerns the target HLA-A*30:02. Described as above.
Experiment [2] deals with HLA-B*15:01. The experiment is described as follows: IEDB peptide-MHC binding, purified MHC/competitive/fluorescence; filed as Kd, often an IC50 or EC50 that approximates it; ≥ and ≤ were set here for values at or beyond the usual limits of such assays.
In another experiment the target is HLA-A*30:01. The experiment is described as follows: IEDB peptide-MHC binding, purified MHC/competitive/radioactivity; filed as Kd, often an IC50 or EC50 that approximates it; ≥ and ≤ were set here for values at or beyond the usual limits of such assays.
For another experiment, the target named is HLA-B*40:01. The description is as above. As to conditions: source organism: Dengue virus 2 Jamaica/1409/1983.
For experiment [3], the target named is HLA-A*02:01. Put plainly: IEDB peptide-MHC binding, purified MHC/direct/fluorescence; filed as Kd, often an IC50 or EC50 that approximates it; ≥ and ≤ were set here for values at or beyond the usual limits of such assays. As to conditions: source organism: SARS-CoV1.
For another experiment, the target named is HLA-A*31:01. The description is as above. As to conditions: source organism: SARS-CoV1.
In experiment [4] the target is HLA-B*15:01. The experiment is described as above. As to conditions: source organism: SARS-CoV1.
For experiment [5], the target named is HLA-A*03:01. The description is as above. As to conditions: source organism: SARS-CoV1.
The next experiment concerns the target HLA-B*53:01. Put plainly: IEDB peptide-MHC binding, purified MHC/competitive/radioactivity; filed as Kd, often an IC50 or EC50 that approximates it; ≥ and ≤ were set here for values at or beyond the usual limits of such assays.
In a further experiment the target is HLA-A*23:01. The experiment is described as above.
For experiment [6], the target named is HLA-B*46:01. Put plainly: IEDB peptide-MHC binding, purified MHC/competitive/fluorescence; filed as Kd, often an IC50 or EC50 that approximates it; ≥ and ≤ were set here for values at or beyond the usual limits of such assays. As to conditions: source organism: Influenza A virus.
The next experiment deals with HLA-B*57:01. Put plainly: IEDB peptide-MHC binding, purified MHC/direct/fluorescence; filed as Kd, often an IC50 or EC50 that approximates it; ≥ and ≤ were set here for values at or beyond the usual limits of such assays. As to conditions: source organism: Yellow fever virus.
Experiment [7] deals with HLA-B*46:01. Described as above. As to conditions: source organism: West Nile virus.
A further experiment addresses HLA-B*44:02. Put plainly: IEDB peptide-MHC binding, purified MHC/competitive/radioactivity; filed as Kd, often an IC50 or EC50 that approximates it; ≥ and ≤ were set here for values at or beyond the usual limits of such assays. As to conditions: source organism: Dengue virus 4 Philippines/H241/1956.
A further experiment addresses HLA-A*11:01. The description is as above. As to conditions: source organism: Dengue virus 2 Jamaica/1409/1983.
For experiment [8], the target named is HLA-A*03:01. The description is as above. As to conditions: source organism: Dengue virus 2 Jamaica/1409/1983.
A further experiment addresses HLA-A*68:01. Described as above. As to conditions: source organism: Dengue virus 2 Jamaica/1409/1983.
Experiment [9] has as its target HLA-A*02:01. Put plainly: IEDB peptide-MHC binding, purified MHC/competitive/fluorescence; filed as Kd, often an IC50 or EC50 that approximates it; ≥ and ≤ were set here for values at or beyond the usual limits of such assays. As to conditions: source organism: Escherichia coli B171.
Where [10] appears, read: source organism: Dengue virus 1 Brazil/97-11/1997.
Where [11] appears, read: source organism: Dengue virus 3 Martinique/1243/1999.
Where [12] appears, read: source organism: Vaccinia virus WR.
[13] abbreviates: source organism: Dengue virus 4 Philippines/H241/1956.
[14] abbreviates: source organism: Dengue virus 2 Jamaica/1409/1983.

pKd: −log10 of the molar value.

As to EFFLMVLLI, the pKd in the experiment with HLA-A*24:02 (setting [10]) was at most 4.40.

For HTSEHGGRAY, the pKd in the experiment with HLA-A*26:01 (setting [11]) is 6.79; with HLA-A*01:01 (setting [11]), 5.99; in the experiment with HLA-B*15:01 [1] (setting [11]), 6.84; in the experiment with HLA-A*30:02 (setting [11]), at most 4.36.

STLRTLKPY showed a pKd in the experiment with HLA-B*15:01 [2] (source organism: Bacillus cereus G9241) of 6.83.

In the case of GIFPYSIPAT, the pKd with HLA-A*30:01 (source organism: Dengue virus 3 Sri Lanka/1266/2000) is at most 4.15.

LSKNTFYLF: the negative logarithm of the Kd (pKd) with HLA-B*15:01 [1] (setting [12]) is 7.85.

For GEHKKLAEAI, the pKd with HLA-B*40:01 is 7.27.

Turning to KMSEYKGPV, the negative-log Kd (pKd) with HLA-A*02:01 [3] is 5.82; with HLA-A*31:01 it was 5.68; with HLA-B*15:01 [4] it was 5.18; with HLA-A*03:01 [5], 4.97.

Turning to NPAQEDDQY, the negative logarithm of the Kd (pKd) with HLA-B*53:01 (setting [13]) was 6.13.

On to LQRKHGGML, for which the negative logarithm of the Kd (pKd) with HLA-B*15:01 [1] (setting [11]) was 7.51.

In the case of AWLVHRQWF, the negative-log Kd (pKd) in the experiment with HLA-A*24:02 (setting [14]) was 6.79; with HLA-A*23:01 (setting [14]), 6.47.

EISSTFNRF: the negative-log Kd (pKd) in the experiment with HLA-B*15:01 [1] (setting [12]) was 6.88.

Turning to FQNVNKITY, the pKd in the experiment with HLA-B*46:01 [6] is 5.52; in the experiment with HLA-B*15:01 [2] (source organism: Influenza A virus), 6.81.

As for KNRNSKRSV, in the experiment with HLA-A*30:01 (setting [12]), the negative logarithm of the Kd (pKd) is 7.49.

As to GGSLVRCPLS, the pKd in the experiment with HLA-A*30:01 (setting [13]) is 5.61.

KIMKVVNRW had a pKd with HLA-B*57:01 of 6.88.

With TVFIRFPHY, the pKd was 5.90 with HLA-A*30:01 (setting [12]) and 6.91 with HLA-B*15:01 [1] (setting [12]).

Take KTKRYLPAI: in the experiment with HLA-A*30:01 (setting [14]), the pKd is 7.00.

In the experiment with HLA-B*46:01 [7], LMNDPGAPW showed a negative-log Kd (pKd) of 5.05.

As to RVSVSAILL, in the experiment with HLA-A*30:01 (setting [12]), the pKd was 7.83.

Regarding RTHFSQPSG, the pKd in the experiment with HLA-A*30:01 (setting [12]) is 7.84.

For the sequence EAEPPFGDSY, the pKd was 5.89 with HLA-A*26:01 (setting [14]) and 5.75 with HLA-A*01:01 (setting [14]).

Take ISQHNHRPGY: the pKd is 7.91 with HLA-A*30:01 (setting [11]), 4.82 in the experiment with HLA-A*01:01 (setting [11]) and 7.00 with HLA-A*30:02 (setting [11]).

Turning to KVVRLTPQV, in the experiment with HLA-A*30:01 (setting [12]), the pKd was 6.75.

Take RLSNGMPTV: the negative logarithm of the Kd (pKd) with HLA-A*30:01 (setting [12]) was 5.03.

On to MTSRMLLNRF, for which the results for the negative-log Kd (pKd) with HLA-A*26:01 (setting [10]) and in the experiment with HLA-A*01:01 (setting [10]) were 5.66 and 4.91, respectively.

For LTASLVMLL, the pKd in the experiment with HLA-A*01:01 (source organism: Dengue virus 4 Dominica/814669/1981) is 5.72.

For the sequence RMAILGETAW, the pKd is 6.60 with HLA-B*15:01 [1] (setting [13]) and 5.79 in the experiment with HLA-B*44:02.

With VSYSTFCLG, the negative logarithm of the Kd (pKd) in the experiment with HLA-B*15:01 [1] (setting [12]) was 6.15.

For GECIKTCVF, in the experiment with HLA-B*15:01 [1] (setting [12]), the negative logarithm of the Kd (pKd) is 6.94.

In the case of VTFKNPHAK, the negative-log Kd (pKd) was 6.86 with HLA-A*11:01, 6.56 with HLA-A*30:01 (setting [14]), 8.02 in the experiment with HLA-A*03:01 [8] and 6.88 with HLA-A*68:01.

Regarding VVRLLTKPWD, the negative logarithm of the Kd (pKd) with HLA-A*30:01 (setting [14]) was 5.42.

Take WMVHRQWFF: the negative logarithm of the Kd (pKd) in the experiment with HLA-A*24:02 (setting [11]) was 6.08; in the experiment with HLA-A*23:01 (setting [11]) it was 6.90.

With LQGRGPLKLF, in the experiment with HLA-B*15:01 [1] (setting [14]), the pKd is 6.87.

As for VQYRGLYQI, the pKd was 6.90 in the experiment with HLA-A*02:01 [9] and 6.97 with HLA-B*15:01 [2] (source organism: Escherichia coli B171).

Turning to NGVVTTSGTY, the pKd with HLA-A*30:02 (setting [10]) is 6.16.

With LGRANITHF, the pKd with HLA-B*15:01 [1] (setting [12]) was 8.17.

Turning to TPRMCTREEF, the pKd with HLA-B*53:01 (setting [14]) is 5.89.
